T1: human CD19 on WSU-DLCL2 cells (human, UniProt P15391 20-556)
T1 construct: Endogenous CD19 of the B-cell non-Hodgkin lymphoma line WSU-DLCL2; also called CD19+ WSU-DLCL2; human CD19-expressing tumor cells
T1 sequence: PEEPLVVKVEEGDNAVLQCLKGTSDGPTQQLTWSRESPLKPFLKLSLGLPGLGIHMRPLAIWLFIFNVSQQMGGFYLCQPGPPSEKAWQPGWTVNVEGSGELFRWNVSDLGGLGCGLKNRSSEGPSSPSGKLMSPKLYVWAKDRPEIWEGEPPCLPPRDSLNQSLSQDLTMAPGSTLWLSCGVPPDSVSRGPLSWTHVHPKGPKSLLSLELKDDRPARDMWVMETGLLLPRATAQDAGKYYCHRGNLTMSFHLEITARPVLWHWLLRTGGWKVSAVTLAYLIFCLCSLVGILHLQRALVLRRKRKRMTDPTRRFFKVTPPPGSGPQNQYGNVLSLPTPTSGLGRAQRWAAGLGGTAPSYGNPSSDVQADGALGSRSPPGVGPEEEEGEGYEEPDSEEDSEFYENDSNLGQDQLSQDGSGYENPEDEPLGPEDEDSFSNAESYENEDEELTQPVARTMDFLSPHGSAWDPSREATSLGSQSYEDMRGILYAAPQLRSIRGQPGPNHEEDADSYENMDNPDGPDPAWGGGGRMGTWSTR


Legend:
[1] = target: T2, monomeric human CD19 Fc(kih) fusion protein (human, UniProt P0DOX5 223-449 = IgG part); experiment: SPR ProteOn XPR36, Fab from bacterial supernatant captured by anti-human Fab, monomeric CD19-Fc as analyte
T2 construct: Heterodimeric Fc fusion with a single copy of the CD19 ectodomain; Part of the preparation was biotinylated at the Avi tag; the SPR text speaks of 'purified monomeric CD19-Fc' as analyte without saying whether it was biotinylated; also called monomeric CD19-Fc; human CD19-Fc fusion protein
Method: In order to further characterize the ELISA-positive clones, the off-rate was measured by surface plasmon resonance using a ProteOn XPR36 machine and compared with the parental humanized clone 8B8.
For this experiment, 7000 RU of polyclonal anti-human Fab antibody were immobilized on all 6 channels of a GLM chip by Amine coupling (NaAcetate pH4.5, 25 μl/min, 240 s) (vertical orientation). Each antibody-containing bacterial supernatant was filtered and 2-fold diluted with PBS, and then injected for 360 s at 25 μl/minute to achieve immobilization levels of between 100 and 400 response units (RU) in vertical orientation. Injection of monomeric CD19-Fc: For one-shot kinetics measurements, injection direction was changed to horizontal orientation, three-fold dilution series of purified monomeric CD19-Fc (varying concentration ranges between 150 and 6 nM) were injected simultaneously at 50 μl/min along separate channels 1-4, with association times of 180 s, and dissociation times of 300 s. […] Dissociation rate constants (koff) were calculated using a simple one-to-one Langmuir binding model in ProteOn Manager v3.1 software by simultaneously fitting the sensorgrams. […] Of note, the dissociation rate constants of clones 5A07 and 5B08 could not be determined due to inadequate fitting. […]

[2] = target: T2, monomeric human CD19 Fc(kih) fusion …; experiment: SPR ProteOn XPR36, 25 C, IgG from HEK supernatant captured by anti-human Fab, monomeric CD19-Fc as analyte
Method: The Affinity (KD) of the parental antibody 8B8 as well as it derivatives was measured by SPR using a ProteOn XPR36 instrument (Biorad) at 25° C. 7000 RU of polyclonal anti-human Fab antibody were immobilized on all 6 channels of a GLM chip by Amine coupling (NaAcetate pH4.5, 25 ul/min, 240 s) (vertical orientation). Each antibody-containing HEK supernatant was filtered, diluted with PBST (10 mM phosphate, 150 mM sodium chloride pH 7.4, 0.005% Tween 20) to a concentration of 10 ug/ml, and then injected at a for 360 s at 25 μl/minute to achieve immobilization levels between 500 and 800 response units (RU) in vertical orientation. Injection of monomeric CD19-Fc: For one-shot kinetics measurements, injection direction was changed to horizontal orientation, three-fold dilution series of purified monomeric CD19-Fc (varying concentration ranges between 150 and 6 nM) were injected simultaneously at 50 μl/min along separate channels 1-4, with association times of 180 s, and dissociation times of 300 s. A human IgG Fc fragment (150 nM) was injected in channel 5 as a negative control for specific binding to monomeric CD19-Fc. Buffer (PB ST) was injected along the sixth channel to provide an “in-line” blank for referencing. Regeneration was performed by two pulses of 10 mM glycine pH 1.5 and 50 mM NaOH for 30 s at 90 ul/min (vertical orientation). Association rate constants (kₒₙ) and dissociation rate constants (koff) were calculated using a simple one-to-one Langmuir binding model in ProteOn Manager v3.1 software by simultaneously fitting the association and dissociation sensorgrams. The equilibrium dissociation constant (KD) was calculated as the ratio koff/kₒₙ. The dissociation constant of all affinity-matured clones was improved compared to their parental clone 8B8.

[3] = target: T1, human CD19 on WSU-DLCL2 cells; experiment: flow cytometry on CD19+ WSU-DLCL2 cells, PE anti-human IgG F(ab')2 detection
Method: 0.1×10⁶ tumor cells resuspended in DPBS (Gibco by Life Technologies, Cat. No. 14190 326) were added to each well of a round-bottom suspension cell 96-well plate (greiner bio-one, cellstar, Cat. No. 650185). Cells were washed once with 200 μL DPBS. Cells were resuspended in 100 μL/well of 4° C. cold DPBS buffer containing 1:5000 diluted Fixable Viability Dye eFluor 660 (eBioscience, Cat. No. 65-0864-18) and plates were incubated for 30 minutes at 4° C. Cells were washed once with 200 μL/well 4° C. cold DPBS buffer and resuspended in 50 μL/well of 4° C. cold FACS buffer (DPBS supplied with 2% FBS, 5 mM EDTA pH8 (Amresco, Cat. No. E177) and 7.5 mM Sodium azide (Sigma-Aldrich S2002)) containing the CD19 binders at a series of concentrations, followed by incubation for 1 hour at 4° C. After extensive washing, cells were further stained with 50 μL/well of 4° C. cold FACS buffer containing 5 μg/mL PE-conjugated AffiniPure anti-human IgG F(ab′)2-fragment-specific goat F(ab′)2 fragment (Jackson ImmunoResearch, Cat. No. 109 116 098) for 30 minutes at 4° C. Cells were then washed twice with 200 μL/well 4° C. FACS buffer and cells were fixed in 50 μL/well DPBS containing 1% Formaldehyde (Sigma, HT501320-9.5L). Cells were resuspended in 100 μL/well FACS-buffer and acquired using the FACS LSR II (BD Biosciences). Data was analyzed using FlowJo V10 (FlowJo, LLC) and GraphPad Prism 6.04 (GraphPad Software, Inc).

Binder | EC50 [3] | other results
parental humanized anti-CD19 clone 8B8, Fab in bacterial supernatant (Fab, V domains shown, Soluble Fab expressed from the phagemid in bacterial supernatant (Flag-tagged); also called Parental 8B8; CD19 (8B8)) VH: QVQLVQSGAEVKKPGASVKVSCKASGYTFTDYIMHWVRQAPGQGLEWMGYINPYNDGSKYTEKFQGRVTMTSDTSISTAYMELSRLRSDDTAVYYCARGTYYYGSALFDYWGQGTTVTVSS VL: DIVMTQTPLSLSVTPGQPASISCKSSQSLENSNGNTYLNWYLQKPGQSPQLLIYRVSKRFSGVPDRFSGSGSGTDFTLKISRVEAEDVGVYYCLQLTHVPYTFGQGTKLEIK | – | koff [1]: 0.000301 s⁻¹
anti-CD19 clone 8B8 in P329GLALA human IgG1 format (antibody, V domains shown, also called Parental 8B8; parental antibody 8B8) VH: QVQLVQSGAEVKKPGASVKVSCKASGYTFTDYIMHWVRQAPGQGLEWMGYINPYNDGSKYTEKFQGRVTMTSDTSISTAYMELSRLRSDDTAVYYCARGTYYYGSALFDYWGQGTTVTVSS VL: DIVMTQTPLSLSVTPGQPASISCKSSQSLENSNGNTYLNWYLQKPGQSPQLLIYRVSKRFSGVPDRFSGSGSGTDFTLKISRVEAEDVGVYYCLQLTHVPYTFGQGTKLEIKR | – | Kd [2]: 2.36 nM; koff [2]: 0.000134 s⁻¹; kon [2]: 56600 M⁻¹ s⁻¹
anti-CD19 clone 5B08 in P329GLALA human IgG1 format (antibody, V domains shown, also called CD19 (8B8-5B08)) VH: QVQLVQSGAEVKKPGASVKVSCKASGYTFTDYIMHWVRQAPGQGLEWMGYINPYNDGSKYTEKFQGRVTMTSDTSISTAYMELSRLRSDDTAVYYCARGTYYYGPQLFDYWGQGTTVTVSS VL: DIVMTQTPLSLSVTPGQPASISCKSSQSLETSTGNTYLNWYLQKPGQSPQLLIYRVSKRFSGVPDRFSGSGSGTDFTLKISRVEAEDVGVYYCLQLDSYPNTFGQGTKLEIKR | 0.014 nM | –
anti-CD19 clone 2B11 in P329GLALA human IgG1 format (antibody, V domains shown, also called CD19 (8B8-2B11)) VH: QVQLVQSGAEVKKPGASVKVSCKASGYTFTDYIMHWVRQAPGQGLEWMGYINPYNDGSKYTEKFQGRVTMTSDTSISTAYMELSRLRSDDTAVYYCARGTYYYGPQLFDYWGQGTTVTVSS VL: DIVMTQTPLSLSVTPGQPASISCKSSQSLETSTGTTYLNWYLQKPGQSPQLLIYRVSKRFSGVPDRFSGSGSGTDFTLKISRVEAEDVGVYYCLQLLEDPYTFGQGTKLEIKR | 0.034 nM | –
anti-CD19 clone 7H07 in P329GLALA human IgG1 format (antibody, V domains shown, also called CD19 (8B8-7H07)) VH: QVQLVQSGAEVKKPGASVKVSCKASGYTFTDYIMHWVRQAPGQGLEWMGYINPYNDGSKYTEKFQGRVTMTSDTSISTAYMELSRLRSDDTAVYYCARGTYYYGSELFDYWGQGTTVTVSS VL: DIVMTQTPLSLSVTPGQPASISCKSSQSLETSTGNTYLNWYLQKPGQSPQLLIYRVSKRFSGVPDRFSGSGSGTDFTLKISRVEAEDVGVYYCLQATHIPYTFGQGTKLEIKR | 0.034 nM | –
anti-CD19 clone 5H09 in P329GLALA human IgG1 format (antibody, V domains shown, also called CD19 (8B8-5H09)) VH: QVQLVQSGAEVKKPGASVKVSCKASGYTFTDYIMHWVRQAPGQGLEWMGYINPYNDGSKYTEKFQGRVTMTSDTSISTAYMELSRLRSDDTAVYYCARGTYYYGSALFDYWGQGTTVTVSS VL: DIVMTQTPLSLSVTPGQPASISCKSSQSLESSTGNTYLNWYLQKPGQSPQLLIYRVSKRFSGVPDRFSGSGSGTDFTLKISRVEAEDVGVYYCLQLIDYPVTFGQGTKLEIKR | 0.02 nM | –
anti-CD19 clone 2B03 in P329GLALA human IgG1 format (antibody, V domains shown, also called CD19 (8B8-2B03)) VH: QVQLVQSGAEVKKPGASVKVSCKASGYTFTDYITHWVRQAPGQGLEWMGYINPYNDGSKYTEKFQGRVTMTSDTSISTAYMELSRLRSDDTAVYYCARGTYYYGPDLFDYWGQGTTVTVSS VL: DIVMTQTPLSLSVTPGQPASISCKSSQSLETSTGNTYLNWYLQKPGQSPQLLIYRVSKRFSGVPDRFSGSGSGTDFTLKISRVEAEDVGVYYCLQLTHVPYTFGQGTKLEIKR | 0.041 nM | –

Source: patent publication US20230312710A1 (Hoffmann-La Roche, published 2023)
